{"source": "patent US7101851", "about": "(dated 2006)", "note": "Bridges are numbered along the chain shown (N, C = ends). Where no end group is shown, it is not given here. [ ]: non-standard residue; d: D form. Ava = NCCCCC(=O)O", "data": [{"molecular_target": "T1, alpha subunit of the human FcεRI receptor expressed on Chinese hamster ovary cells (human, UniProt P12319 26-257)", "T1 construct": "whole, on cells; also called CHO FcεRI+ cells", "T1 sequence (looked up)": "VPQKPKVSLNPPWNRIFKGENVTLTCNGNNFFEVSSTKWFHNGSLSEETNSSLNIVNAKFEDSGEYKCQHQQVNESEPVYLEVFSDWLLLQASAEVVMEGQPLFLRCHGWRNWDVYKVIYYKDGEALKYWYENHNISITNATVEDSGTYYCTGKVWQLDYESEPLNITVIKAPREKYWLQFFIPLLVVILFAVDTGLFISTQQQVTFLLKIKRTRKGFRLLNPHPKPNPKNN", "assay": "inhibition of 125I-IgE binding to CHO cells expressing human FcεRI alpha subunit", "protocol": "To determine the ability of peptides to inhibit IgE binding to FcεRI, a cell-based binding assay was used with radiolabeled IgE. Chinese hamster ovary cells expressing the alpha subunit of the human FcεRI receptor were cultured overnight in Falcon 96 well microtiter plates at a concentration of 5 ×10^4 cells per well. The following day the cells were rinsed three times with PBS and then once with F12/DMEM. Peptide stocks were reconstituted in 100 mM Hepes buffered water, pH 7.2, at a concentration of 5 mg/mL. Working concentrations of the peptide were diluted in assay buffer (see below). 75 uL of a desired concentration of peptide was added to the top row of a separate 96 well microtiter plate and serially diluted 1:3 in 50 uL of the assay buffer (F12/DMEM, 1% BSA, 0.05% NaN_3 and 0.025 mM Hepes pH 7.2). Starting concentrations ranged from 50–500 uM. Next, 50 uL of the diluted peptide was transferred to the 96 microtiter well plate containing a monolayer of CHO FcεRI+ cells. […] Cells were […]", "units": {"IC50": "nM"}, "values": [{"binder": "CTEGPWGWFCI-NH2 (disulfide 1-10 (inferred), synthetic)", "note": "[IGE047]", "IC50": 741000}, {"binder": "Ac-NLPRCTEGPWGWVCMAAD-NH2 (disulfide 5-14 (inferred), synthetic)", "note": "[IGE042]", "IC50": 1500}, {"binder": "Ac-CTEGPWGWFCI-NH2 (disulfide 1-10 (inferred), synthetic)", "note": "[IGE046]", "IC50": 549000}, {"binder": "Ac-CLEGPWGWVCI-NH2 (disulfide 1-10 (inferred), synthetic)", "note": "[IGE080]", "IC50": 410000}, {"binder": "CLEGPWGWFCI-NH2 (disulfide 1-10 (inferred), synthetic)", "note": "[IGE045]", "IC50": 300000}, {"binder": "Ac-CLEGPWGWFCI-NH2 (disulfide 1-10 (inferred), synthetic)", "note": "[IGE044]", "IC50": 194000}]}, {"molecular_target": "T2, alpha subunit of the human FcεRI receptor (IgE high affinity receptor), expressed on Chinese hamster ovary … (human, UniProt P12319 26-257)", "T2 construct": "whole, on cells; also called CHO FcεRI+ cells; FcεRIα", "T2 sequence (looked up)": "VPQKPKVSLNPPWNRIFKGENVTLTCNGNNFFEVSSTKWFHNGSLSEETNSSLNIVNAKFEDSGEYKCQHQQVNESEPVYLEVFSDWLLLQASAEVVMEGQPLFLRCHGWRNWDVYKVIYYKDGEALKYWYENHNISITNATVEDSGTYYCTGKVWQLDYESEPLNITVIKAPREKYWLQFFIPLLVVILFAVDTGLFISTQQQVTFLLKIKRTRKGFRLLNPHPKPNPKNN", "assay": "inhibition of 125I-IgE binding to CHO cells expressing human FcεRI alpha; competitor IgE", "outline": "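CHO cells expressing human FcεRI alpha were plated at 5 × 10^4 cells per well overnight, then given peptides serially diluted 1:3 from 50–500 uM starting concentrations in F12/DMEM with 1% BSA, 0.05% NaN3 and Hepes pH 7.2. Inhibition of 125I-IgE binding was measured.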", "units": {"IC50": "nM"}, "values": [{"binder": "VQCPHFCYELDYEAGDERLCPDVCYV-NH2 (disulfide (positions not given here); also: two disulfides, pairing not settled)", "note": "[IGE189]", "IC50": 150}, {"binder": "VQCPHFCYDYELCPDVCYV-NH2 (disulfide 7-13, 3-17; N-terminus assumed; SMILES CC(C)C[C@@H]1NC(=O)[C@H](CCC(=O)O)NC(=O)[C@H](Cc2ccc(O)cc2)NC(=O)[C@H](CC(=O)O)NC(=O)[C@H](Cc2ccc(O)cc2)NC(=O)[C@@H]2CSSC[C@H](NC1=O)C(=O)N1CCC[C@H]1C(=O)N[C@@H](CC(=O)O)C(=O)N[C@@H](C(C)C)C(=O)N[C@H](C(=O)N[C@@H](Cc1ccc(O)cc1)C(=O)N[C@H](C(N)=O)C(C)C)CSSC[C@H](NC(=O)[C@H](CCC(N)=O)NC(=O)[C@@H](N)C(C)C)C(=O)N1CCC[C@H]1C(=O)N[C@@H](Cc1c[nH]cn1)C(=O)N[C@@H](Cc1ccccc1)C(=O)N2)", "note": "[IGE184]", "IC50": 110}, {"binder": "VQCPHFCYDASRLCPDVCYV-NH2 (disulfide (positions not given here); not fully specified (bridges); printed as VQCPHFCYDASRLCPDVCYV-nh2)", "note": "[IGE183]", "IC50": 30}, {"binder": "VQCPDFCYDASRLCPDVCYV-NH2 (disulfide 7-14, 3-18; N-terminus assumed; SMILES CC(C)C[C@@H]1NC(=O)[C@H](CCCNC(=N)N)NC(=O)[C@H](CO)NC(=O)[C@H](C)NC(=O)[C@H](CC(=O)O)NC(=O)[C@H](Cc2ccc(O)cc2)NC(=O)[C@@H]2CSSC[C@H](NC1=O)C(=O)N1CCC[C@H]1C(=O)N[C@@H](CC(=O)O)C(=O)N[C@@H](C(C)C)C(=O)N[C@H](C(=O)N[C@@H](Cc1ccc(O)cc1)C(=O)N[C@H](C(N)=O)C(C)C)CSSC[C@H](NC(=O)[C@H](CCC(N)=O)NC(=O)[C@@H](N)C(C)C)C(=O)N1CCC[C@H]1C(=O)N[C@@H](CC(=O)O)C(=O)N[C@@H](Cc1ccccc1)C(=O)N2)", "note": "[IGE197]", "IC50": 120}, {"binder": "VQCPHFCYDASELCPDVCYV-NH2 (disulfide (positions not given here); not fully specified (bridges); printed as VQCPHFCYDASELCPDVCYV-nh2)", "note": "[IGE196]", "IC50": 90}, {"binder": "VQCPDFCY[Ava]LCPDVCYV-NH2 (disulfide (positions not given here); not fully specified (bridges); printed as VQCPDFCYavaLCPDVCYV-nh2)", "note": "[IGE199]", "IC50": 6670}, {"binder": "VQCPHFCY[Ava]LCPDVCYV-NH2 (disulfide (positions not given here); not fully specified (bridges); printed as VQCPHFCYavaLCPDVCYV-nh2)", "note": "[IGE198]", "IC50": 7800}, {"binder": "VQCPDFCY[Ava]LCPDQCYV-NH2 (disulfide (positions not given here); not fully specified (bridges); printed as VQCPDFCYavaLCPDQCYV-nh2)", "note": "[IGE201]", "IC50": 14600}, {"binder": "VQCPKFCY[Ava]LCPDVCYV-NH2 (disulfide (positions not given here); not fully specified (bridges); printed as VQCPKFCYavaLCPDVCYV-nh2)", "note": "[IGE200]", "IC50": 11700}, {"binder": "VQCPDFCY[Ava]CPDVCYV-NH2 (disulfide (positions not given here); not fully specified (bridges); printed as VQCPDFCYavaCPDVCYV-nh2)", "note": "[IGE202]", "IC50": 132000}, {"binder": "CPHFCYFGAELCPDVCY-NH2 (not fully specified (bridges); cysteine pairing not given here)", "note": "[IGE170]", "IC50": 200}, {"binder": "Ac-VQCPHFCYFGAELCPDVCYV-NH2 (disulfide 7-14, 3-18; SMILES CC(=O)N[C@H](C(=O)N[C@@H](CCC(N)=O)C(=O)N[C@H]1CSSC[C@@H](C(=O)N[C@@H](Cc2ccc(O)cc2)C(=O)N[C@H](C(N)=O)C(C)C)NC(=O)[C@H](C(C)C)NC(=O)[C@H](CC(=O)O)NC(=O)[C@@H]2CCCN2C(=O)[C@@H]2CSSC[C@H](NC(=O)[C@H](Cc3ccccc3)NC(=O)[C@H](Cc3c[nH]cn3)NC(=O)[C@@H]3CCCN3C1=O)C(=O)N[C@@H](Cc1ccc(O)cc1)C(=O)N[C@@H](Cc1ccccc1)C(=O)NCC(=O)N[C@@H](C)C(=O)N[C@@H](CCC(=O)O)C(=O)N[C@@H](CC(C)C)C(=O)N2)C(C)C)", "note": "[IGE168]", "IC50": 260}, {"binder": "Ac-CPHFCYFGAELCPDVCY-NH2 (not fully specified (bridges); cysteine pairing not given here)", "note": "[IGE171]", "IC50": 290}, {"binder": "VQCPHFCYAEPLCPDVCYV-NH2 (disulfide 7-13, 3-17; N-terminus assumed; SMILES CC(C)C[C@@H]1NC(=O)[C@@H]2CCCN2C(=O)[C@H](CCC(=O)O)NC(=O)[C@H](C)NC(=O)[C@H](Cc2ccc(O)cc2)NC(=O)[C@@H]2CSSC[C@H](NC1=O)C(=O)N1CCC[C@H]1C(=O)N[C@@H](CC(=O)O)C(=O)N[C@@H](C(C)C)C(=O)N[C@H](C(=O)N[C@@H](Cc1ccc(O)cc1)C(=O)N[C@H](C(N)=O)C(C)C)CSSC[C@H](NC(=O)[C@H](CCC(N)=O)NC(=O)[C@@H](N)C(C)C)C(=O)N1CCC[C@H]1C(=O)N[C@@H](Cc1c[nH]cn1)C(=O)N[C@@H](Cc1ccccc1)C(=O)N2)", "note": "[IGE185]", "IC50": 76}, {"binder": "VQCPHFCYEL[Ava]ELCPDVCYV-NH2 (disulfide 7-14, 3-18)", "note": "[IGE186]", "IC50": 180}, {"binder": "VQCPKFCYE[Ava]CPDVCYV-NH2 (disulfide (positions not given here); not fully specified (bridges); printed as VQCPKFCYEavaCPDVCYV-nh2; also: dimer)", "note": "[IGE203]", "IC50": 12900}, {"binder": "VQCPHFCYELDYEADRLCPDVCYV-NH2 (disulfide (positions not given here); also: two disulfides, pairing not settled)", "note": "[IGE188]", "IC50": 980}, {"binder": "Ac-VQCPHFCYELDYELCPDVCYV-NH2 (not fully specified (bridges); cysteine pairing not given here)", "note": "[IGE179]", "IC50": 220}, {"binder": "VQCPHFCYELFSRLCPDVCYV-NH2 (disulfide (positions not given here); also: two disulfides, pairing not settled)", "note": "[IGE182]", "IC50": 80}, {"binder": "VQCPHFCYE[Ava]ELCPDVCYV-NH2 (disulfide (positions not given here); not fully specified (bridges); printed as VQCPHFCYEavaELCPDVCYV-nh2)", "note": "[IGE187]", "IC50": 90}]}]}
